Target: αvβ3 integrin on C-PAE cells (bovine) (UniProt P80746)
Test: C-PAE attachment to plates coated with 293-produced Tumstatin; 10 µg/ml peptide; competitor is the Tumstatin coat

αvβ3 integrin on C-PAE cells (bovine), sequence (P80746 31-1048): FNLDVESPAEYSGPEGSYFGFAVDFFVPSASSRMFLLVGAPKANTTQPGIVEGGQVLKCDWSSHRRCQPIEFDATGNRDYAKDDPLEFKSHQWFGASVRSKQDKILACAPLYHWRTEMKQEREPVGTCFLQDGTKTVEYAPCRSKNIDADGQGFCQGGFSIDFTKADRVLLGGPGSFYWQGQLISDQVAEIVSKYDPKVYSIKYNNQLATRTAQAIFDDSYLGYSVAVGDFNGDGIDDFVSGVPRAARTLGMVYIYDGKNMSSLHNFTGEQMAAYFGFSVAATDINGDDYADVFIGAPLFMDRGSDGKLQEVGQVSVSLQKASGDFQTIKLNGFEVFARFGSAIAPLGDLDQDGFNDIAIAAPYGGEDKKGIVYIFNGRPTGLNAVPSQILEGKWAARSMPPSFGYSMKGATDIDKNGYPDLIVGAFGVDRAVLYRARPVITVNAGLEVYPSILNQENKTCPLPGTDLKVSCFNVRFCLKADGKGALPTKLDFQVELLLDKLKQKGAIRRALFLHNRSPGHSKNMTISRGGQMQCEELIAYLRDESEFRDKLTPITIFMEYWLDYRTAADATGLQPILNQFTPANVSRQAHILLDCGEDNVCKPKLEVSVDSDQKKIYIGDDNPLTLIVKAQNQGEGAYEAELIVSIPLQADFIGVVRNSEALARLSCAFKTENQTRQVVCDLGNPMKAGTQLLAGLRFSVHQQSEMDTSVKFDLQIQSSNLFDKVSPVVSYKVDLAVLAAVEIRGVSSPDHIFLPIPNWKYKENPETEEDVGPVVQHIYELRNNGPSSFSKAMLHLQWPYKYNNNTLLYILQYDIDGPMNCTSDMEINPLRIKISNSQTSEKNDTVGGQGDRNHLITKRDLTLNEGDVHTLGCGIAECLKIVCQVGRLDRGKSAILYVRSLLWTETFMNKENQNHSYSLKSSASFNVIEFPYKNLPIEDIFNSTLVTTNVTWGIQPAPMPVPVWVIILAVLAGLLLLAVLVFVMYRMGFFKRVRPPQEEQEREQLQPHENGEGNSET

% inhibition of cell attachment: 46.4%
Binder: LQRFTTMPFLFCNVNDVCNF [T3 peptide]
